Data as given in PMC4549301 (2015).

B1: GST–HCF-1rep1, wild type (HCF-1 residues 867–1071) [human] / Recombinant human O-linked β-N-acetylglucosamine transferase (OGT), wild type [human] (parent complex)
chain 1: PAVTTLVVKGTTGVTTLGTVTGTVSTSLAGAGGHSTSASLATPITTLGTIATLSSQVINPTAITVSAAQTTLTAAGGLTTPTITMQPVSQPTQVTLITAPSGVEAQPVHDLPVSILASPTTEQPTATVTIADSGQGDVQPGTVTLVCSNPPCETHETGTTNTATTTVVANLGGHPQPTQVQFVCDRQEAAASLVTSTVGQQNGSV
chain 2: MASSVGNVADSTGLAELAHREYQAGDFEAAERHCMQLWRQEPDNTGVLLLLSSIHFQCRRLDRSAHFSTLAIKQNPLLAEAYSNLGNVYKERGQLQEAIEHYRHALRLKPDFIDGYINLAAALVAAGDMEGAVQAYVSALQYNPDLYCVRSDLGNLLKALGRLEEAKACYLKAIETQPNFAVAWSNLGCVFNAQGEIWLAIHHFEKAVTLDPNFLDAYINLGNVLKEARIFDRAVAAYLRALSLSPNHAVVHGNLACVYYEQGLIDLAIDTYRRAIELQPHFPDAYCNLANALKEKGSVAEAEDCYNTALRLCPTHADSLNNLANIKREQGNIEEAVRLYRKALEVFPEFAAAHSNLASVLQQQGKLQEALMHYKEAIRISPTFADAYSNMGNTLKEMQDVQGALQCYTRAIQINPAFADAHSNLASIHKDSGNIPEAIASYRTALKLKPDFPDAYCNLAHCLQIVCDWTDYDERMKKLVSIVADQLEKNRLPSVHPHHSMLYPLSHGFRKAIAERHGNLCLDKINVLHKPPYEHPKDLKLSDGRLRVGYVSSDFGNHPTSHLMQSIPGMHNPDKFEVFCYALSPDDGTNFRVKVMAEANHFIDLSQIPCNGKAADRIHQDGIHILVNMNGYTKGARNELFALRPAPIQAMWLGYPGTSGALFMDYIITDQETSPAEVAEQYSEKLAYMPHTFFIGDHANMFPHLKKKAVIDFKSNGHIYDNRIVLNGIDLKAFLDSLPDVKIVKMKCPDGGDNADSSNTALNMPVIPMNTIAEAVIEMINRGQIQITINGFSISNGLATTQINNKAATGEEVPRTIIVTTRSQYGLPEDAIVYCNFNQLYKIDPSTLQMWANILKRVPNSVLWLLRFPAVGEPNIQQYAQNMGLPQNRIIFSPVAPKEEHVRRGQLADVCLDTPLCNGHTTGMDVLWAGTPMVTMPGETLASRVAASQLTCLGCLELIAKNRQEYEDIAVKLGTDLEYLKKVRGKVWKQRISSPLFNTKQYTMELERLYLQMWEHYAAGNKPDHMIKPVEVTESA

Variants of: B1
Test: in vitro HCF-1rep1-OGT binding assay (OGT pull-down, quantified immunoblot); in the presence of UDP-GlcNAc; read off a plot

In order of rising screen value:
1. chain 1 T157A  ~-3 log2 fold change
2. chain 1 P150A  ~-1.7 log2 fold change
3. chain 1 E156A  ~-1.1 log2 fold change
4. chain 1 P151A  ~-0.7 log2 fold change
5. chain 1 C152A  ~-0.55 log2 fold change
6. chain 1 H155A  ~-0.5 log2 fold change
7. chain 1 T154A  ~0.3 log2 fold change
